Experimental data taken from patent publication US20190263905A1 (DINONA, published 2019).

T1: CD66c (CEACAM6) on CD66c-positive A549 non-small-cell lung cancer cells (UniProt P40199 35-320, limits assumed)
T1 construct: whole, on cells; also called CD66c antigen; NCA-90
T1 sequence (looked up): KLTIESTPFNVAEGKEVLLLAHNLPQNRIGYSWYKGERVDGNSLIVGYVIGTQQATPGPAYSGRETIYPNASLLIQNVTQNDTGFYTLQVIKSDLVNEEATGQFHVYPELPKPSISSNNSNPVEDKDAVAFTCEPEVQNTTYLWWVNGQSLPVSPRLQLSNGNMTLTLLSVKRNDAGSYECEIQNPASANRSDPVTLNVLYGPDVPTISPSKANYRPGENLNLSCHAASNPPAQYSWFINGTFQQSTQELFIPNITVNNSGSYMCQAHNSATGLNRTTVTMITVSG

T2: Antigen CD66c (CEACAM6; Sino Biological, Inc.) (UniProt P40199 35-320)
T2 construct: Bought antigen coated on the ELISA plate; construct not described; also called CD66c antigen; CECACAM6
T2 sequence (looked up): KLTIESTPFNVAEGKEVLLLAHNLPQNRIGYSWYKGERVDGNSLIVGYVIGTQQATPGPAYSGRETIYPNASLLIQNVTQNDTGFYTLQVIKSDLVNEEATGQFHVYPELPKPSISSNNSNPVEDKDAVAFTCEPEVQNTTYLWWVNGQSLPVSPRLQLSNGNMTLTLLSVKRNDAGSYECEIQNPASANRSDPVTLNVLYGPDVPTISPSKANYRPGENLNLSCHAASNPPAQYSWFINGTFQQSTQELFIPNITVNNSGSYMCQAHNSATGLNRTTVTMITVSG


Tests used:
[1] = biological target: T1, CD66c (CEACAM6) on CD66c-positive A549 …; assay: flow cytometry on CD66c-positive A549 cells, mean fluorescence
Description: (§1) Each expressed 96 recombinant humanized antibody was poured and reacted in a test tube containing the same amount ([…]) of CD66c-positive A549 non-small-cell lung cancer cell line at 4° C. for 30 minutes, washed with PBS, and treated with FITC-conjugated goat anti-Human IgG (DiNona Inc, Korea) was added and incubated at 4° C. for 15 minutes. After washing with PBS, the cells were analyzed with a flow cytometer (Stratedigm, S1000EXi) and the results are shown below.
(§2) Among the 96 recombinant humanized antibody candidates, eight were firstly selected based on the degree of expression, the presence of aggregation, and the degree of cell binding (Table 9 and Table 10, FIGS. 3A to 3E).

[2] = biological target: T1, CD66c (CEACAM6) on CD66c-positive A549 …; assay: flow cytometry on A549 cells, relative to chimeric antibody
Description: as §1, §2

[3] = biological target: T1, CD66c (CEACAM6) on CD66c-positive A549 …; assay: flow cytometry on CD66c-positive A549 cells, FITC anti-human IgG
Description: as §1, §2

[4] = biological target: T2, Antigen CD66c (CEACAM6; Sino …); assay: ELISA, coated CEACAM6 100 ng/well, antibody 4.57 ng/ml
Description: (§3) Antigen CD66c (CEACAM6; Sino Biological, Inc.) and CEACAM1 antigen (Sino Biological, Inc.) were coated on a 96-well plate at 100 ng per well and then blocked. The primary antibody was diluted serially three fold from 10 ug/ml at initial concentration and was bound at 37° C. for 1 hour, and goat anti-Human Ig-HRP conjugate (Jackson ImmunoResearch) as a secondary antibody was diluted 1:10,000 and incubated at 37° C. for 30 minutes. The washing was carried out at three times between each step, and the TMB reaction was performed, stopped with 1N H₂SO₄ solution at the same amount of TMB solution (100 ul) and then OD value was measured at 450 nm.
(§4) As a result of the experiment, the binding affinities to CD66c antigen of the five kinds of recombinant humanized antibodies selected from among 96 kinds of recombinant humanized antibodies are shown in FIG. 4a, Table 12, FIG. 4b and Table 13. FIG. 4a and Table 12 show the binding capacity of the antibodies to CECACAM6 CD66c) antigen, and FIG. 4b and Table 13 are the results for the CEACAM1 (CD66a) antigen.

[5] = biological target: T2, Antigen CD66c (CEACAM6; Sino …); assay: ELISA, coated CEACAM6 100 ng/well, antibody 1111.11 ng/ml
Description: as §3, §4

[6] = biological target: T2, Antigen CD66c (CEACAM6; Sino …); assay: ELISA, coated CEACAM6 100 ng/well, antibody 41.15 ng/ml
Description: as §3, §4

[7] = biological target: T2, Antigen CD66c (CEACAM6; Sino …); assay: ELISA, coated CEACAM6 100 ng/well, antibody 0.17 ng/ml
Description: as §3, §4

[8] = biological target: T2, Antigen CD66c (CEACAM6; Sino …); assay: ELISA, coated CEACAM6 100 ng/well, antibody 1.52 ng/ml
Description: as §3, §4

[9] = biological target: T2, Antigen CD66c (CEACAM6; Sino …); assay: ELISA, coated CEACAM6 100 ng/well, antibody 3333.33 ng/ml
Description: as §3, §4

[10] = biological target: T2, Antigen CD66c (CEACAM6; Sino …); assay: ELISA, coated CEACAM6 100 ng/well, antibody 13.72 ng/ml
Description: as §3, §4

[11] = biological target: T2, Antigen CD66c (CEACAM6; Sino …); assay: ELISA, coated CEACAM6 100 ng/well, antibody 10000.00 ng/ml
Description: as §3, §4

[12] = biological target: T2, Antigen CD66c (CEACAM6; Sino …); assay: ELISA, coated CEACAM6 100 ng/well, antibody 123.46 ng/ml
Description: as §3, §4

[13] = biological target: T2, Antigen CD66c (CEACAM6; Sino …); assay: ELISA, coated CEACAM6 100 ng/well, antibody 370.37 ng/ml
Description: as §3, §4

[14] = biological target: T2, Antigen CD66c (CEACAM6; Sino …); assay: ELISA, coated CEACAM6 100 ng/well, antibody 0.51 ng/ml
Description: as §3, §4

| Mean [1] | % (% gated × mean) [2] [%] | % gated [3] [%] | OD 450 nm [4] [OD] | OD 450 nm [5] [OD] | OD 450 nm [6] [OD] | OD 450 nm [7] [OD] | OD 450 nm [8] [OD] | OD 450 nm [9] [OD] | OD 450 nm [10] [OD] | OD 450 nm [11] [OD] | OD 450 nm [12] [OD] | OD 450 nm [13] [OD] | OD 450 nm [14] [OD] | Binder |
| --- | --- | --- | --- | --- | --- | --- | --- | --- | --- | --- | --- | --- | --- | --- |
| 541 | 85 | 71 | – | – | – | – | – | – | – | – | – | – | – | recombinant humanized anti-CD66c antibody Protein ID 3004 (Vk7 + VH5) (antibody, human IgG1, V domains shown, also called #41) VH: QVQLVQSGAEVKKPGASVKISCKASGYSFTDYTMNWVRQAHGQNLEWIGLINPFHGGTVSNQRFKVKATLTVDVSTNTAYMELSRLRSDDTAVYYCVRGDPVRHYYALAYWGQGTLVTVSS VL: DIQMTQSPSTLSASVGDRVTITCGASENVYGTLNWYQRKPGKAPKLLIYGATNLADGVPSRFSGSGSGTEYTLTISSLQPDDFATYYCQNVLSAPYTFGGGTKLEIK |
| 554 | 85.8 | 70 | – | – | – | – | – | – | – | – | – | – | – | recombinant humanized anti-CD66c antibody Protein ID 3010 (Vk7 + VH7) (antibody, human IgG1, V domains shown, also called #45) VH: QVQLVQSGAEVKKPGASMKISCKASGYSFTDYTMNWVRQAPGQGLEWIGLINPFHGGTVSNQRFKVKATLTVDVSTNTAYMELSRLRSDDTAVYYCVRGDPVRHYYALAYWGQGTLVTVSS VL: DIQMTQSPSTLSASVGDRVTITCGASENVYGTLNWYQRKPGKAPKLLIYGATNLADGVPSRFSGSGSGTEYTLTISSLQPDDFATYYCQNVLSAPYTFGGGTKLEIK |
| 523 | 82.2 | 71 | – | – | – | – | – | – | – | – | – | – | – | recombinant humanized anti-CD66c antibody Protein ID 3046 (Vk8 + VH7) (antibody, human IgG1, V domains shown, also called #74) VH: QVQLVQSGAEVKKPGASMKISCKASGYSFTDYTMNWVRQAPGQGLEWIGLINPFHGGTVSNQRFKVKATLTVDVSTNTAYMELSRLRSDDTAVYYCVRGDPVRHYYALAYWGQGTLVTVSS VL: DIQMTQSPSTLSASVGDRVTITCRASENVYGTLNWYQRKPGKAPKLLIYGATNLADGMPSRFSGSGSGTEYTLTISSLQPDDFATYYCQNVLSAPYTFGGGTKLEIK |
| 561 | 86.9 | 70 | 1.32 | 3.34 | 2.45 | 0.68 | 0.95 | 3.26 | 1.77 | 3.13 | 3.04 | 3.23 | 0.8 | recombinant humanized anti-CD66c antibody Protein ID 3019 (Vk7 + VH10) (antibody, human IgG1, V domains shown, also called hu 3019; #51) VH: QVQLVQSGAEVKKPGASVKVSCKASGYSFTDYTMNWVKQAPGQNLEWIGLINPFHGGTVSNQRFKVKATMTVDVSTNTAYMELSRLRSDDTAVYYCVRGDPVRHYYALAYWGQGTLVTVSS VL: DIQMTQSPSTLSASVGDRVTITCGASENVYGTLNWYQRKPGKAPKLLIYGATNLADGVPSRFSGSGSGTEYTLTISSLQPDDFATYYCQNVLSAPYTFGGGTKLEIK |
